Source: the supplement of paper PMC7877785
± gives the uncertainty stated by the source.

Assay: self-splicing fitness, log relative to wild type (ln ratio); higher = more splicing; Tetrahymena group I intron in knt gene, E. coli kanamycin selection, DiMSum; sequences stand for … in CUCUCU…GGAGGGAAAAGUUAUCAGGCAUGCACCUGGUAGCUAGUCUUUAAACCAAUAGAUUGCAUCGGUUUAAAAGGCAAGACCGUCAAAUUGCGGGAAAGGGGUCAACAGCCGUUCAGUACCAAGUCUCAGGGGAAACUUUGAGAUGGCCUUGCAAAGGGUAUGGUAAUAAGCUGACGGACAUGGUCCUAACCACGCAGCCAAGUCCUAAGUCAACAGAUCUUCUGUUGAUAUGGAUGCAGUUCACAGACUAAAUGUCGGUCGGGGAAGAUGUAUUCUUCUCAUAAGAUAUAGUCGGACCUCUCCUUAAUGGGAGCUAGCGGAUGAAGUGAUGCAACACUGGAGCCGCUGGGAACUAAUUUGUAUGCGAAAGUAUAUUGAUUAGUUUUGGAGUACUCGUGGUCG
Procedure, shortened: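 Library with all eight P1ex-region intron nucleotides randomised, intron inside the knt kanamycin-resistance gene on pET-22b(+), in E. coli BL21(DE3). Cells grew overnight at 37°C or 30°C on LB agar with or without 25 μg/mL kanamycin (plus 100 μg/mL carbenicillin, 50 μM IPTG, 0.2% rhamnose), in six replicate transformations. Pooled colonies were amplicon-sequenced on Illumina HiSeq 2500. DiMSum fitness is the error-weighted combination of wild-type-normalised replicate fold changes, kanamycin versus none.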

Sequence | self-splicing fitness (ln) (30 °C) | self-splicing fitness (ln) (37 °C)
GGAAAGCAAUAUUACGAUUC | -1.84 ± 0.16 | -0.276 ± 0.16
AUAGAGCAAUAUUACGGUAU | -0.341 ± 0.075 | -0.0895 ± 0.11
AGUAAGCAAUAUUACGUGGU | -4.77 ± 0.29 | -2.59 ± 0.17
CUAUAGCAAUAUUACGCGCU | -4.04 ± 0.36 | -2.61 ± 0.41
AGAGAGCAAUAUUACGCAAG | -3.46 ± 0.3 | -2.29 ± 0.3
AGGAAGCAAUAUUACGCAGA | -3.5 ± 0.31 | -1.33 ± 0.14
UCCAAGCAAUAUUACGCAUA | -1.07 ± 0.096 | -0.213 ± 0.087
AGGCAGCAAUAUUACGGCAA | -0.539 ± 0.069 | -1.11 ± 0.085
UCAAAGCAAUAUUACGGCCU |  | -1.28 ± 0.17
CUCCAGCAAUAUUACGCAGC | -2.51 ± 0.15 | -2.25 ± 0.49
AGUCAGCAAUAUUACGUGAA | -1.5 ± 0.065 | -1.09 ± 0.082
UGUGAGCAAUAUUACGCUGA | -2.24 ± 0.46 | 
UCCUAGCAAUAUUACGUUUA | -2.15 ± 0.18 | -2.54 ± 0.23
GCUUAGCAAUAUUACGCACU | -0.857 ± 0.11 | 0.197 ± 0.12
GUCCAGCAAUAUUACGCUAU | -0.823 ± 0.055 | -0.104 ± 0.071
GCUAAGCAAUAUUACGCUGA | -1.48 ± 0.18 | -1.02 ± 0.2
GCCAAGCAAUAUUACGGUCG | -3.19 ± 0.13 | -2.27 ± 0.17
UGCGAGCAAUAUUACGGACA | -0.643 ± 0.14 | 0.226 ± 0.2
AACGAGCAAUAUUACGGAGA | -3.61 ± 0.26 | -2.8 ± 0.28
UCGGAGCAAUAUUACGUAAG | -2.77 ± 0.46 | -1.39 ± 0.42
UGUGAGCAAUAUUACGCCAA | -1.67 ± 0.5 | -0.355 ± 0.39
AGAAAGCAAUAUUACGAGGG | -2.8 ± 0.21 | -2.61 ± 0.36
AUCUAGCAAUAUUACGACGC | -0.785 ± 0.089 | -0.226 ± 0.13
UGAUAGCAAUAUUACGCCCC | -2.85 ± 0.43 | -0.875 ± 0.38
ACCGAGCAAUAUUACGGUUG | -3.88 ± 0.21 | -2.51 ± 0.16
CACUAGCAAUAUUACGGCAC | -2.4 ± 0.11 | -1.53 ± 0.18
CGGAAGCAAUAUUACGAGCA | -2.83 ± 0.24 | -1.82 ± 0.18

Sequence | self-splicing fitness (ln) (30 °C) | self-splicing fitness (ln) (37 °C)
CAAUAGCAAUAUUACGGAUG | -1.51 ± 0.08 | -1.12 ± 0.088
GCGCAGCAAUAUUACGCUAU | -0.914 ± 0.096 | -0.406 ± 0.12
CUUCAGCAAUAUUACGGGAG | -3.41 ± 0.24 | -2.52 ± 0.22
CCGAAGCAAUAUUACGAAUA | -2.66 ± 0.24 | -2.49 ± 0.21
GCAAAGCAAUAUUACGGGUA | -1.55 ± 0.11 | -0.7 ± 0.097
UCCUAGCAAUAUUACGGCUU | -3.41 ± 0.15 | -2.47 ± 0.2
UAGAAGCAAUAUUACGCUAC |  | -2.23 ± 0.31
CGCUAGCAAUAUUACGUGGU | -3.55 ± 0.27 | -2.61 ± 0.26
AAUAAGCAAUAUUACGAGGG | -3.7 ± 0.37 | -2.9 ± 0.34
AGCAAGCAAUAUUACGUCUU | -1.38 ± 0.068 | -0.234 ± 0.074
ACGAAGCAAUAUUACGCACG | -3.26 ± 0.18 | -2.22 ± 0.17
GUCCAGCAAUAUUACGUGCC | -1.16 ± 0.086 | -0.944 ± 0.11
AAAAAGCAAUAUUACGGUAA | -1.31 ± 0.12 | -0.53 ± 0.11
GGAGAGCAAUAUUACGGAUA | -4.36 ± 0.46 | -2.05 ± 0.24
AUGGAGCAAUAUUACGGGUA | -3.28 ± 0.27 | -3.06 ± 0.35
GUCGAGCAAUAUUACGAAAU |  | -1.29 ± 0.49
ACAAAGCAAUAUUACGCGGU | -3.37 ± 0.13 | -2.68 ± 0.14
UGGCAGCAAUAUUACGGCUG | -3.05 ± 0.33 | -2.38 ± 0.46
CAUUAGCAAUAUUACGUAGA | -0.475 ± 0.11 | -1.51 ± 0.2
ACGUAGCAAUAUUACGGCGA | 0.0177 ± 0.1 | 0.229 ± 0.12
ACACAGCAAUAUUACGGUCG | -1.09 ± 0.051 | -0.473 ± 0.076
AUUUAGCAAUAUUACGGUUC |  | -3.23 ± 0.43
UCACAGCAAUAUUACGGGCC | -3.95 ± 0.34 | -2.76 ± 0.33
UCGGAGCAAUAUUACGGAAU |  | -2.38 ± 0.42
CGCUAGCAAUAUUACGACAA | -2.04 ± 0.18 | -1.83 ± 0.2
CAUCAGCAAUAUUACGAAGU | -3.41 ± 0.18 | -1.52 ± 0.14
CCUAAGCAAUAUUACGAUUG | -3.51 ± 0.19 | -1.68 ± 0.13

Sequence | self-splicing fitness (ln) (30 °C) | self-splicing fitness (ln) (37 °C)
CACGAGCAAUAUUACGCAGA |  | -2.28 ± 0.26
CCGAAGCAAUAUUACGGAUU | -2.88 ± 0.27 | -3.15 ± 0.35
CACAAGCAAUAUUACGCCCA | -0.966 ± 0.091 | 0.114 ± 0.09
GCCCAGCAAUAUUACGGUGC | -3.13 ± 0.14 | -2.52 ± 0.18
CUUCAGCAAUAUUACGUCUA |  | -2.38 ± 0.32
UGACAGCAAUAUUACGUAGA | -2.29 ± 0.085 | -1.14 ± 0.11
CCGAAGCAAUAUUACGAGAC |  | -2.52 ± 0.31
UAUAAGCAAUAUUACGCUCC | -1.29 ± 0.24 | -1.02 ± 0.28
GAACAGCAAUAUUACGACCA | -0.754 ± 0.12 | -0.113 ± 0.12
CCCAAGCAAUAUUACGGACC | -2.96 ± 0.18 | -2.29 ± 0.26
AUAAAGCAAUAUUACGCGAC | -1.4 ± 0.13 | -0.298 ± 0.13
UGACAGCAAUAUUACGACAU | -1.209 ± 0.012 | -0.373 ± 0.032
GACAAGCAAUAUUACGGCAC | 0.362 ± 0.075 | -0.214 ± 0.11
CCAGAGCAAUAUUACGGCUC | -2.69 ± 0.23 | -2.76 ± 0.26
CCUUAGCAAUAUUACGGUUG | -2.38 ± 0.1 | -1.48 ± 0.098
GCUAAGCAAUAUUACGGUCG | -2.27 ± 0.11 | -1.34 ± 0.14
CGCCAGCAAUAUUACGGGUG | -4.13 ± 0.14 | -2.58 ± 0.12
ACUAAGCAAUAUUACGUAGU | -3.04 ± 0.14 | -3.45 ± 0.21
UUAAAGCAAUAUUACGACAU | -0.271 ± 0.012 | 0.189 ± 0.032
AGCUAGCAAUAUUACGGUAC | -2.2 ± 0.26 | -1.1 ± 0.24
GUAAAGCAAUAUUACGGCUC | -0.0413 ± 0.071 | 0.298 ± 0.1
GUUCAGCAAUAUUACGAACA | -2.43 ± 0.26 | -1.45 ± 0.22
GACAAGCAAUAUUACGCCAA | -2.03 ± 0.14 | -1.61 ± 0.12
GUCUAGCAAUAUUACGUUGA | -1.64 ± 0.2 | -1.12 ± 0.23
CCCCAGCAAUAUUACGGCGU | -2.22 ± 0.073 | -1.81 ± 0.1
